Molecular target: Concanavalin A (Con A) (UniProt P02866 164-281+30-148, internal_change)
Test: particle flow cytometry; 10 nM Con A; binding buffer, salt, pH and temperature not given in the material (hemagglutination: 30 min preincubation at RT)

B1: ConA-3-1n (ssDNA)
DNA: GATCCCAGTCCGAAGTAATCGTTGCATCTGCACGACTGGTGAGCTTGAGTGGCAGAAGAACTTGTGCAAACGGCTATAGG
modifications: none
- binding result: no binding
